In the supplement of paper PMC12764529:
± gives the half width of the 95% confidence interval.

How the values were obtained:
[1] = folding stability dG unfold from chymotrypsin proteolysis; higher = more stable
Method: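 Folding stability of de novo designed mini-proteins (<80 aa, no Cys; designed by TrROS, TrMRF, ProteinMPNN and the joint model) was measured by cDNA display proteolysis with trypsin and chymotrypsin. Each protease was used at 11 concentrations in a threefold dilution series plus a no-protease condition. K50 was inferred by Bayesian fitting of sequencing counts, and dG unfold was derived against a sequence-predicted unfolded-state K50 (Tsuboyama et al. method). Sequences shown include variable-length N-terminal GS-type padding (SAGGSAGG...) inside a display construct carrying a PA tag. Rows were kept only if the AF2 dimer inter-PAE was >15, to exclude likely homo-oligomers.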

[2] = folding stability dG unfold (combined trypsin and chymotrypsin); higher = more stable
Method in brief: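 Sequencing followed digestion of designed mini-proteins with trypsin and chymotrypsin, each at 11 concentrations in threefold dilutions together with a no-protease condition. The mini-proteins were under 80 residues, had no cysteine, sat in a PA-tagged cDNA display construct, and were kept only if AlphaFold2 dimer inter-PAE was above 15. From the counts, Bayesian fitting gave K50, and unfolding free energy was derived against a sequence-predicted unfolded-state K50 and a shared folded-state K50, per protease or combined.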

| Sequence | folding stability dG unfold [1] [kcal/mol] | folding stability dG unfold [2] [kcal/mol] |
| --- | --- | --- |
| SAGGSAGGSAGGPNWRIITHEIPIKDGEIEINLPEGIKPQSIERNPDDGYIKVSIVIPLSAGGSAGGSAGGS [r10_906_TrROS] | -0.259 ± 0.14 | -0.54 ± 0.15 |
| SAGGSAGGSAGGPPIIEFPIKGDNPEQAKRFAKEVVDLLPDQNPENVDITTTDGWVRITSAGGSAGGSAGGS [r10_182_TrROS] | -0.636 ± 0.67 | < -1 |
| SAGGSAGGSAGGPPNKKFILRIEHPGRPITFPFKSPKGLDEAADKFPDKFGMPPKIEVHPSAGGSAGGSAGG [r7_18_TrROS] | -0.795 ± 0.92 | < -1 |
| SAGGSAGGSAGGPPTTARITLPDGRTYTVPVPVDPTTGTVYVEDIRRAVAPNYTFTIELGSAGGSAGGSAGG [r7_492_TrMRF] | 0.981 ± 0.16 | 0.414 ± 0.14 |
| SAGGSAGGSAGGQPLLARPNDEPIVEVEISETTTLLPNGTVVTTYSVPKKGILTTVTLVSAGGSAGGSAGGS [r10_160_JUSTAS] | -0.703 ± 0.29 | < -1 |
| SAGGSAGGSAGGRIRLRTELLVRREDGSLSRFRETAVFEVEARPRPVPAPRAYRDANGRLVSAGGSAGGSAG [r3_252_TrMRF] | 0.264 ± 0.075 | -0.558 ± 0.13 |
| SAGGSAGGSAGGSDPSATLRVTLTPRTTRTRLVTDEDGVERTYTFGGDGTLSVSLLPSGSAGGSAGGSAGGS [r4_162_TrMRF] | 0.647 ± 0.15 | 0.258 ± 0.091 |
| SAGGSAGGSAGGSKKKKKKPKKVLLVRNKKTKKLYVFKTKEEAKKAGFEIVKDGKIKKKSAGGSAGGSAGGS [r4_306_TrROS_Hall] | 0.258 ± 0.55 | 0.0938 ± 0.41 |
| SAGGSAGGSAGGSKPDPEIEQERNPEKGYRTIKIEFPDKPRTIMVKNLPPDDPALRDAFSAGGSAGGSAGGS [r4_328_TrROS] | -0.0426 ± 0.23 | -0.349 ± 0.18 |
| SAGGSAGGSAGGSKTKTISFPMPWDDIPELAEELKDKGPVTIEHQDPDGNPREFTIPPDSAGGSAGGSAGGS [r4_341_TrROS] | 0.484 ± 0.13 | 0.0258 ± 0.19 |
| SAGGSAGGSAGGSKVNDVTAEKNFLVFTEDGRVLGKGEVERAFAAGAGPIGAVPLPPGASAGGSAGGSAGGS [r4_47_TrMRF] | -0.54 ± 0.23 | < -1 |
| SAGGSAGGSAGGSKVPPGAKITVERHDGGYRTVEIRPPNGKPVEIMMPEDDADEIADQISAGGSAGGSAGGS [r4_16_TrROS] | -1.26 ± 0.82 | < -1 |
| SAGGSAGGSAGGSMTVTETRYVGTDPATGVATTLSTYRDASGTPGLVTTYPGGAVTVALSAGGSAGGSAGGS [r4_35_JUSTAS] | 0.0995 ± 0.26 | -0.312 ± 0.28 |
| SAGGSAGGSAGGSMVPVPVNILKLAPGGIPLGTYPVEPLRKEGISPEEFAKKNGYIISGSAGGSAGGSAGGS [r10_153_JUSTAS] | -0.0261 ± 0.3 | -0.827 ± 0.26 |
| SAGGSAGGSAGGSNPNKPKEFYRIEYTHGGKPHTHMFPPNEPIPPGPNMKVDPFPADDLSAGGSAGGSAGGS [r4_107_TrROS] | -0.131 ± 0.23 | -0.688 ± 0.69 |
| SAGGSAGGSAGGSPFWRIKIENPGNGKEITVMVPPDDIDKAKEEAEQEGLKKIEIEPVPSAGGSAGGSAGGS [r4_102_TrROS] | -0.0872 ± 0.3 | -0.993 ± 0.7 |
| SAGGSAGGSAGGSPLTLTRTLTLTRTTTDPDVPGTTTTETRTLTLTTELTLPPLPPGTPSAGGSAGGSAGGS [r4_231_TrROS_Hall] | 0.588 ± 0.18 | < -1 |
| SAGGSAGGSAGGSPRHYYVEIEFPNGRKMSIPIESPEEALDYLEDHNYPIKDVELHPLKSAGGSAGGSAGGS [r4_213_TrROS] | 0.0167 ± 0.25 | -0.323 ± 0.41 |
| SAGGSAGGSAGGSPVIFVDPVEGRARVLLAAPAPNPDGEPGGLGLAEVEFEVGDVRLLLSAGGSAGGSAGGS [r4_10_TrMRF] | 0.753 ± 0.075 | -0.00848 ± 0.12 |
| SAGGSAGGSAGGSSMLTTRPLPGGRTLLRTTLPDGTILVTRYDAAGEPVLETLPPSTPLLSAGGSAGGSAGG [r7_215_JUSTAS] | 0.102 ± 0.27 | < -1 |
